This note sets out measurements from publication doi:10.1101/093708 (bioRxiv, 2016).

This data set deals with the molecule itself. The experiment in a line: cryo-EM structure; EcFtsZ 0.5 mg/mL in 50 mM HEPES-KOH, 100 mM potassium acetate, 5 mM magnesium acetate, pH 7.7, 20 °C, 0.1 mM GMPCPP; helical reconstruction of filaments in RELION.

B1: Escherichia coli FtsZ, full length, untagged, wildtype (natural protein, E. coli, UniProt P0A9A6 1-383, looked up)
chain: MFEPMELTNDAVIKVIGVGGGGGNAVEHMVRERIEGVEFFAVNTDAQALRKTAVGQTIQIGSGITKGLGAGANPEVGRNAADEDRDALRAALEGADMVFIAAGMGGGTGTGAAPVVAEVAKDLGILTVAVVTKPFNFEGKKRMAFAEQGITELSKHVDSLITIPNDKLLKVLGRGISLLDAFGAANDVLKGAVQGIAELITRPGLMNVDFADVRTVMSEMGYAMMGSGVASGEDRAEEAAEMAISSPLLEDIDLSGARGVLVNITAGFDLRLDEFETVGNTIRAFASDNATVVIGTSLDPDMNDELRVTVVATGIGMDKRPEITLVTNKQVQQPVMDRYQQHGMAPLTQEQKPVAKVVNDNAPQTAKEPDYLDIPAFLRKQAD
notes: also called EcFtsZ; E. coli FtsZ; source: E. coli C41 (DE3), purified (GTP and calcium-induced precipitation, Mono Q)
As for B1, the binding result is recorded as “binds”.
